Experimental data as given in patent US20210032351A1 (XDCEXPLORER SHANGHAI, published 2021).

Assays:
[1] = molecular target: T1, human EGFRvIII-hFc protein (human, UniProt P00533 25-645); assay: ELISA, EGFRvIII-hFc coated
T1 construct: extracellular domain; also called immunogen A; hFc-tagged EGFRvIII protein; not shown: human IgG Fc fragment (hFc) of the pCpC vector
Experimental: The purified humanized anti-EGFRvIII antibody obtained in example 12 is reacted with a human EGFRvIII-hFc protein.
(§1) The purified immunogen A (EGFRvIII-hFc) obtained in example 1 (for the preparation method, see step (I) in example 1) is diluted with PBS to a final concentration of 1.0 μg/mL, and then added to a 96-well ELISA plate at 100 μl/well. The plate is sealed with a plastic film and incubated at 4° C. overnight. The next day, the plate is washed twice with a plate washing solution [PBS+0.01% (v/v) Tween20], and added with a blocking solution [PBS+0.01% (v/v) Tween20+1% (w/w) BSA] for blocking 2 hours at room temperature. […] The plate is incubated for 2 hours at 37° C., and then washed 3 times with the plate washing solution [PBS+0.01% (v/v) Tween20]. The plate is added with an HRP (horseradish peroxidase) labeled secondary antibody (purchased from Sigma), incubated at 37° C. for 2 hours, and then washed 3 times with the plate washing solution [PBS+0.01% (v/v) Tween20]. The plate is added with 100 μl of TMB substrate/well, incubated for 30 minutes at room temperature, and then added with 100 μl of stopping solution (1.0N HCl)/well. A450 nm value is read using an ELISA plate reader (SpectraMax 384plus, purchased from Molecular Device).

[2] = molecular target: T2, human wild-type EGFR protein on the cell surface (human, UniProt P00533 25-1210); assay: FACS on normal human primary hepatocytes
T2 construct: whole, on cells; Endogenous on A431, HEB, U87MG cells and normal human primary hepatocytes; transfected on CHOk1-EGFR cells; The cell is named under assay; also called A431; HEB
Experimental: (§2) The preparation of U87MG-EGFRvIII required for FACS detection is as described in the preparation of the immunogen B in example 1. Normal human primary hepatocytes are purchased from BioreclamationIVT, and A431 tumor cells are purchased from ATCC. The recovered hepatocytes are directly used for FACS detection, and the recovered U87MG-EGFRvIII and A431 cells are subjected to an expanded culture to 90% confluence in a T-75 cell culture flask; the medium is sucked out, and the cells are washed twice with a HBSS buffer (Hanks Balanced Salt Solution) (purchased from Invitrogen), and then treated with an enzyme-free cell dissociation solution (Versene solution: purchased from Life Technology) and collected. The cells are washed twice with the HBSS buffer and are counted, and then the cells are diluted with the HBSS buffer to 2×10⁶ cells/ml, added with 1% goat serum blocking solution, with the percentage being the mass percentage, and incubated on ice for 30 minutes, and then centrifugally washed twice with the HBSS buffer. The collected cells are resuspended to 2×10⁶ cells/mL with an FACS buffer (HBSS+2% FBS, with the percentage being the volume percentage), added to a 96-well FACS reaction plate at 100 μL/well, then added with 100 μL/well of the purified EGFRvIII antibody (samples to be tested) obtained in example 12, and incubated on ice for 2 hours. The plate is centrifugally washed twice with the FACS buffer, added with 100 μL/well of a 1:1000 diluted fluorescence (Alexa 488) labeled secondary antibody (purchased from Invitrogen), and incubated on ice for 1 hour. The plate is centrifugally washed 3 times with the FACS buffer, added with 100 μL/well of a fixing solution [4% (v/v) paraformaldehyde] to resuspend the cells, and centrifugally washed twice with the FACS buffer after 10 minutes. The cells are resuspended in 100 μL of the FACS buffer, and the results are detected and analyzed by FACS (FACS Calibur, purchased from BD). Data analysis is performed by using the software (CellQuest) to obtain the mean fluorescence intensity (MFI) of the cells. Data is further analyzed by using the software (GraphPad Prism5) to perform data fitting and calculate EC50.

[3] = molecular target: T2, human wild-type EGFR protein on the …; assay: FACS on A431 tumor cells
Experimental: as §2

[4] = molecular target: T2, human wild-type EGFR protein on the …; assay: FACS, MFI on A431 cells over MFI on normal primary hepatocytes
Experimental: as §2

[5] = molecular target: T3, human EGFRvIII protein on the cell surface (human, UniProt P00533 25-1210); assay: FACS on U87MG-EGFRvIII cells
T3 construct: whole, on cells; the cell line is named under assay; also called hEGFRvIII; U87MG-hEGFRvIII
Experimental: as §2

[6] = molecular target: T3, human EGFRvIII protein on the cell …; assay: cell-based or functional assay
[7] = molecular target: T4, human EGFRvIII-hFc protein (human, UniProt P00533 25-645); assay: ELISA, plate coated with human EGFRvIII-hFc, HRP secondary antibody, absorbance at 450 nm
T4 construct: extracellular domain; made in HEK293 cells, purified on protein A; also called immunogen A; hFc-tagged EGFRvIII protein; not shown: human IgG Fc fragment (hFc) of the pCpC vector
Experimental: as §1, with “Device), and the results are shown in FIG. 11 and table 19.” for “Device).”

Binder	EC50 [1] [nM]	Maximum OD450 value [1] [OD450]	MFI [2] [MFI]	MFI [3] [MFI]	Selective window (MFI A431/Hepatocytes) [4] [fold]	EC50 [5] [nM]	Maximum mean fluorescence intensity [5] [MFI]	IC50, nM; cell killing of U87MG-hEGFRvIII (CellTiter-Glo, 5 days) [6] [nM]	EC50 (read off the curve) [7] [nM]
Humanized antibody h75G7C6-9 (antibody, human IgG1, V domains shown, also called VH-g1/VL-g0) VH: QVQLVQSGAEVKKPGASVKVSCKASGYTFTDYNMDWVRQAPGQGLEWIGDINPNNADTIYNQKFKGRVTLTVDTSTSTVYMELSSLRSEDTAVYYCARGDYDGYYPVYYAMDYWGQGTTVTVSS VL: EIVLTQSPATLSLSPGERATLSCRASSSVSSSYLHWYQQKPGQAPRLLIYSTSNLAAGIPARFSGSGSGTDFTLTISSLEPEDFAVYYCQQYSGYPLTFGGGTKVEIK	0.58	2.83	238	10700	45	5.83	18200		
Humanized antibody h75G7C6-14 (antibody, human IgG1, V domains shown, also called VH-g2/VL-g1) VH: QVQLVQSGAEVKKPGASVKVSCKASGYTFTDYNMDWVKQAPGQGLEWIGDINPNNADTIYNQKFKGRVTLTVDKSTSTVYMELSSLRSEDTAVYYCARGDYDGYYPVYYAMDYWGQGTTVTVSS VL: ENVLTQSPATLSLSPGERATLSCRASSSVSSSYLHWYQQKPGQAPRLLIFSTSNLAAGIPARFSGSGSGTDYTLTISSLEPEDFAVYYCQQYSGYPLTFGGGTKVEIK	0.32	3.03	248	11500	46.2	6.37	18500		
Humanized antibody h75G7C6-15 (antibody, human IgG1, V domains shown, also called VH-g2/VL-g2) VH: QVQLVQSGAEVKKPGASVKVSCKASGYTFTDYNMDWVKQAPGQGLEWIGDINPNNADTIYNQKFKGRVTLTVDKSTSTVYMELSSLRSEDTAVYYCARGDYDGYYPVYYAMDYWGQGTTVTVSS VL: ENVLTQSPATLSLSPGERATLSCRASSSVSSSYLHWYQQKPGQSPRLLIFSTSNLAAGIPARFSGSGSGTDYTLTISSLEPEDFAVYYCQQYSGYPLTFGGGTKVEIK	0.29	3.19	287	13000	45.3	6.45	18900		
Humanized antibody h75G7C6-16 (antibody, human IgG1, V domains shown, also called VH-g2/VL-g3) VH: QVQLVQSGAEVKKPGASVKVSCKASGYTFTDYNMDWVKQAPGQGLEWIGDINPNNADTIYNQKFKGRVTLTVDKSTSTVYMELSSLRSEDTAVYYCARGDYDGYYPVYYAMDYWGQGTTVTVSS VL: ENVLTQSPATLSLSPGERATLSCRASSSVSSSYLHWYQQKPGQSPRLLIFSTSNLAAGVPARFSGSGSGTDYTLTISSLEPEDFAVYYCQQYSGYPLTFGGGTKVEIK	0.27	2.97	269	12400	46.2	6.74	18900		
Humanized antibody h75G7C6-13 (antibody, human IgG1, V domains shown, also called VH-g2/VL-g0) VH: QVQLVQSGAEVKKPGASVKVSCKASGYTFTDYNMDWVKQAPGQGLEWIGDINPNNADTIYNQKFKGRVTLTVDKSTSTVYMELSSLRSEDTAVYYCARGDYDGYYPVYYAMDYWGQGTTVTVSS VL: EIVLTQSPATLSLSPGERATLSCRASSSVSSSYLHWYQQKPGQAPRLLIYSTSNLAAGIPARFSGSGSGTDFTLTISSLEPEDFAVYYCQQYSGYPLTFGGGTKVEIK	0.48	3.16	256	11500	44.7	6.77	18700		
Chimeric antibody 7E5-MMAF (antibody, human IgG1, V domains shown, MC-MMAF coupled after TCEP reduction (sites not given); DAR 3.51 for the antibody) VH: EIQLQQSGPELVKPGASVKVSCKASGYSFTDYNMYWVKQSHGKSLEWIGYVDPSNGGTNYNQKFKGKATLTVDKSSSTAFMHLNSLTSEDSAVYYCARGFFDYWGQGTTLTVSS VL: DIVMTQSPSSLTVTAGEKVTMSCKSSQSLLNSGNQKNYLTWYQQKPGQPPKLLIYWASNRESGVPDRFTGSGSGKDFTLTISSVQAEDLAVYYCQNDYRYPVTFGAGTKLELK								0.04	
Chimeric antibody 75G7-MMAF (antibody, human IgG1, V domains shown, MC-MMAF coupled after TCEP reduction (sites not given); DAR 3.40 for the antibody) VH: EVQLQQSGPELVKPGASVKIPCKASGYTFTDYNMDWVKQSHGKSLEWIGDINPNNGDTIYNQKFKGKATLTVDKSSSTAYMELRSLTSEDTAVYYCARGDYDGYYPVYYAMDYWGQGTSVTVSS VL: ENVLTQSPAIMSASPGEKVTMTCRASSSVSSSYLHWYQQKSGASPKLWIFSTSNLAAGVPARFSGSGSGTSYSLTVSSVEAEDAATYYCQQYSGYPLTFGAGTKLELK								0.27	
Chimeric antibody 75G7 (antibody, human IgG1, V domains shown, also called c75G7C6; wild-type chimeric antibody c75G7C6) VH: EVQLQQSGPELVKPGASVKIPCKASGYTFTDYNMDWVKQSHGKSLEWIGDINPNNGDTIYNQKFKGKATLTVDKSSSTAYMELRSLTSEDTAVYYCARGDYDGYYPVYYAMDYWGQGTSVTVSS VL: ENVLTQSPAIMSASPGEKVTMTCRASSSVSSSYLHWYQQKSGASPKLWIFSTSNLAAGVPARFSGSGSGTSYSLTVSSVEAEDAATYYCQQYSGYPLTFGAGTKLELK									~0.05
Chimeric antibody 63A10-MMAF (antibody, human IgG1, V domains shown, MC-MMAF coupled after TCEP reduction (sites not given); DAR 3.10 for the antibody) VH: QVQLQQSGAELARPGASVKMSCKASGYTFISFTMHWVKQRPGQGLEWIGYINPNSGYTKYNQKFKDKATLTAGQSSSTAYMQLSSLTSEDSAVYYCTRGGGRGFAYWGQGTLVTVSA VL: DILMTQSPSSMSVSLGDTVTITCHASQDINSNIGWLQQKPGKSFKALIYHGTNLEDGVPSRFSGSGSGADYSLTISSLESEDFADYYCVQYAQFPFTFGSGTKLEIK								0.01	
Chimeric antibody 64F1-MMAF (antibody, human IgG1, V domains shown, MC-MMAF coupled after TCEP reduction (sites not given); DAR 4.05 for the antibody) VH: QVQLQQSGAELARPGASVKMSCKASGYTFSSYTMHWAKQRPGQGLEWIGYINPSSGYTKYNQKFKDKATLTADKSSSTAYMQLSSLTSEDSIVYYCARGGGRGFAYWGQGTLVTVSA VL: QIVLTQSPAIMSASPGERVTMTCSASSSVSYMYWYQQKPGSSPRLLIYDTSNLASGVPVRFSGSGSGTSYSLTISRVEAEDAATYYCQQWSSYSLTFGAGTKLELK								0.01	
